Experimental data taken from article PMC7144924 (Nucleic Acids Research, 2020).

Target: T1, GST-tagged R289A mutant Rrp9 (S. cerevisiae, UniProt Q06506 1-573, R289A)
T1 sequence (looked up): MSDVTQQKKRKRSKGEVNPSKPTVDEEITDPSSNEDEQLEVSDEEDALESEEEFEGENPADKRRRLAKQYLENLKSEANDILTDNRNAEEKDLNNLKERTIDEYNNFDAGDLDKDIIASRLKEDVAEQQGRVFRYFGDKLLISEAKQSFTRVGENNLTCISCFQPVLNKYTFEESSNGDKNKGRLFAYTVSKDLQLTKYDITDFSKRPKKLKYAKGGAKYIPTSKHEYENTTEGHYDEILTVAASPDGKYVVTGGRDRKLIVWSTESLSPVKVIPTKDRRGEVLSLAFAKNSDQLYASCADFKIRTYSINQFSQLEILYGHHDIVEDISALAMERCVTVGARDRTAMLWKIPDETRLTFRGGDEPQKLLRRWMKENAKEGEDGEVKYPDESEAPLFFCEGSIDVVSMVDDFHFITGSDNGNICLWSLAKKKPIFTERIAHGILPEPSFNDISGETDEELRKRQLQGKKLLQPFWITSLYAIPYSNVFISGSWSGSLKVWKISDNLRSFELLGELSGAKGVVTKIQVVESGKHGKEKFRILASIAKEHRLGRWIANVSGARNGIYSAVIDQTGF
Experiment: pull-down

reduction of recovery relative to WT Rrp9: 20%
B1: [35S]-methionine-labeled Rrp36, in vitro translated (natural protein, S. cerevisiae, UniProt Q12481 1-300, looked up)
chain: MSYYFKNLKPDLNSDVEEDDGNLLESIMANKSKREIDEQESSDDELKTLSFGSLKKAETVIDEEDFKDTKPVHKKPITTTYREESFDEDEDSEDQSDEDAGFFEEDSEDETHHGQKVPKKKSKHAPVEQSSKKRVPRVRNIPGLEIPRNKRSNLYQDIRFDKSTGKALDSSIIRKRYQFLDEYREKEIDELQKLLQERKFLSKIDQGEREEMEQRLKSMKSRLQSMKNKDLEREILKEYENDMNKNNNTRYHLKKSEKRKVVQKWKFDHMKAKQREKVMERKRKKRLGKEFKQFEFHNRR
modifications: [35S]-methionine-labeled
